B2: FMDV capsid protein VP3 (other)
chain: GIFPVACSDGYGGLVTTDPKTADPVYGKVFNPPRNLLPGRFTNLLDVAEACPTFLHFDGDVPYVTTKTDSDRVLAQFDLSLAAKHMSNTFLAGLAQYYTQYSGTINLHFMFTGPTDAKARYMVAYAPPGMEPPKTPEAAAHCIHAEWDTGLNSKFTFSIPYLSAADYAYTASDVAETTNVQGWVCLFQITHGKADGDALVVLASAGKDFDLRLPVDARTQ

Columns and labels:
[1] = molecular target: FMDV capsid protein VP0 (foot-and-mouth disease virus, UniProt Q6PMV1 218-504); assay: size exclusion HPLC of the U1P1 protease-treated product
[2] = molecular target: B2; assay: as above

B1: FMDV capsid protein VP1 (other)
chain: TTSAGESADPVTATVENYGGETQVQRRQHTDIAFILDRFVKVKPKEQVNVLDLMQIPAHTLVGALLRTATYYFSDLELAVKHEGDLTWVPNGAPETALDNTTNPTAYHKEPLTRLALPYTAPHRVLATVYNGSSKYGDTSTNNVRGDLQVLAQKAERTLPTSFNFGAIKATRVTELLYRMKRAETYCPRPLLAIQPSDARHKQRIVAPAKQLL
- binding result [1]: binds
- binding result [2]: binds

Binder: B2
- binding result [1]: binds

Reference: US20100183649A1 (ACADEMIA SINICA, published 2010)
